Measurements published in patent US20170129954A1 (PROTHENA BIOSCIENCES, published 2017).

How the values were obtained:
Assay in all cases: shotgun mutagenesis library, immunofluorescence on BHK cells, 0.5 µg/mL antibody
[1] = biological target: T1, human MCAM C272A mutant (shotgun mutagenesis library, on BHK cells) (human, UniProt P43121 24-646)
T1 chain: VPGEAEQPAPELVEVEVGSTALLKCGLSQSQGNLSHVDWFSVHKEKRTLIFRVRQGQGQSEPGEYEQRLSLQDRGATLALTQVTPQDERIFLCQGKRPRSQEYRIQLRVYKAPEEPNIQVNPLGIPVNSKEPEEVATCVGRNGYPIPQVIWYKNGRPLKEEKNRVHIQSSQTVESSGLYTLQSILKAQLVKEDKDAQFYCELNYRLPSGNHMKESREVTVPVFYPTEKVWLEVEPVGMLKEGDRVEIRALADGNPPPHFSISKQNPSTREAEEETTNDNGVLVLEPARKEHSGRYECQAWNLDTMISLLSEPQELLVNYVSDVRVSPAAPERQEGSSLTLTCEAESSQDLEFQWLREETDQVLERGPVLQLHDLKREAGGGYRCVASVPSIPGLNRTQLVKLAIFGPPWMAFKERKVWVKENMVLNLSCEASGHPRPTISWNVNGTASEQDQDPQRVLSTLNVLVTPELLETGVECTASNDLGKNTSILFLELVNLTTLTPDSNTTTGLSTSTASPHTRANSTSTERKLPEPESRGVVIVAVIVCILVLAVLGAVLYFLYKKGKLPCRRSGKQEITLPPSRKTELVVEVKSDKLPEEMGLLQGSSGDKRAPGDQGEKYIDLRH
Experimental: (§1) Secondary antibodies from Jackson ImmunoResearch were used at 1:400 for MAb and sera detection.
(§2) The mutation library was assayed for surface expression (mouse sera binding) and monoclonal antibody binding, in triplicate. Each raw data point was background-subtracted and normalized to the wild type MCAM reactivity values. The mean monoclonal antibody binding value for each clone is plotted as a function of its mean surface expression value (FIG. 1, gray diamonds). Thresholds of <30% monoclonal antibody reactivity and >50% mouse sera binding were applied to identify clones (FIG. 1, black diamonds) that were negative for monoclonal antibody binding but positive for surface expression.

[2] = biological target: T2, human MCAM Y318A mutant (shotgun mutagenesis library, on BHK cells) (human, UniProt P43121 24-646)
T2 chain: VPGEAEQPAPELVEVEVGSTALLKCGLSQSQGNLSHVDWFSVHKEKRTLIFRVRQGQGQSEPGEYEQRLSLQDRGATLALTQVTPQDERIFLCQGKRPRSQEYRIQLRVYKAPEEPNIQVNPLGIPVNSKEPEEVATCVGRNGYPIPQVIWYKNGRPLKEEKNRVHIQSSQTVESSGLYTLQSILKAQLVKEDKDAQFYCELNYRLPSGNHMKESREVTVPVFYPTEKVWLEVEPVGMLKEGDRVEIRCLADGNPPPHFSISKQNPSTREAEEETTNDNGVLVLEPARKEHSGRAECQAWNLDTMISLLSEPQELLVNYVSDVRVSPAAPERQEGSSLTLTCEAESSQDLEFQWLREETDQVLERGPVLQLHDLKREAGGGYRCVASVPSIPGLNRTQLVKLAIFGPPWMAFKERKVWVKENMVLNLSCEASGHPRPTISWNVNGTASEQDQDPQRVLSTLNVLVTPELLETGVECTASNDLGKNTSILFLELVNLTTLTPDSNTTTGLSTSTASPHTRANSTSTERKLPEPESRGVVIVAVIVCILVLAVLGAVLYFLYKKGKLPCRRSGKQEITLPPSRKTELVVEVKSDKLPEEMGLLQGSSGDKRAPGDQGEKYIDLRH
Experimental: as §1, §2

[3] = biological target: T3, human MCAM C320A mutant (shotgun mutagenesis library, on BHK cells) (human, UniProt P43121 24-646)
T3 chain: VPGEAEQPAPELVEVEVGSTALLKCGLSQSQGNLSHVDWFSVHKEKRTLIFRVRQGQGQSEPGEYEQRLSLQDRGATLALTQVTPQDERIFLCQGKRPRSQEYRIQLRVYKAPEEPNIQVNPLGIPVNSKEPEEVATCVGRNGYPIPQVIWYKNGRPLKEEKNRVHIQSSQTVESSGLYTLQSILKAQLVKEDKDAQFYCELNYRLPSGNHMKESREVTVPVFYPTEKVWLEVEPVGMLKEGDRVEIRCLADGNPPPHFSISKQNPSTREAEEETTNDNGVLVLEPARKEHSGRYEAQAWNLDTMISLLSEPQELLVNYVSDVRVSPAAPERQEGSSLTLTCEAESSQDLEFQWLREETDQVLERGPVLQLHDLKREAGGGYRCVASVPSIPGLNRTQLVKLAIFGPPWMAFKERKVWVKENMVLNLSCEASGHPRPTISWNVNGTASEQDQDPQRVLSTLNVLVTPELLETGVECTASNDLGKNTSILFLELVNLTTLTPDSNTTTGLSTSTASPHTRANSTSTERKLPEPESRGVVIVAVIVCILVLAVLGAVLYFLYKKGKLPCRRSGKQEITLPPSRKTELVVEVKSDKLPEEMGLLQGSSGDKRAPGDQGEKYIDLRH
Experimental: as §1, §2

[4] = biological target: T4, human MCAM V340A mutant (shotgun mutagenesis library, on BHK cells) (human, UniProt P43121 24-646)
T4 chain: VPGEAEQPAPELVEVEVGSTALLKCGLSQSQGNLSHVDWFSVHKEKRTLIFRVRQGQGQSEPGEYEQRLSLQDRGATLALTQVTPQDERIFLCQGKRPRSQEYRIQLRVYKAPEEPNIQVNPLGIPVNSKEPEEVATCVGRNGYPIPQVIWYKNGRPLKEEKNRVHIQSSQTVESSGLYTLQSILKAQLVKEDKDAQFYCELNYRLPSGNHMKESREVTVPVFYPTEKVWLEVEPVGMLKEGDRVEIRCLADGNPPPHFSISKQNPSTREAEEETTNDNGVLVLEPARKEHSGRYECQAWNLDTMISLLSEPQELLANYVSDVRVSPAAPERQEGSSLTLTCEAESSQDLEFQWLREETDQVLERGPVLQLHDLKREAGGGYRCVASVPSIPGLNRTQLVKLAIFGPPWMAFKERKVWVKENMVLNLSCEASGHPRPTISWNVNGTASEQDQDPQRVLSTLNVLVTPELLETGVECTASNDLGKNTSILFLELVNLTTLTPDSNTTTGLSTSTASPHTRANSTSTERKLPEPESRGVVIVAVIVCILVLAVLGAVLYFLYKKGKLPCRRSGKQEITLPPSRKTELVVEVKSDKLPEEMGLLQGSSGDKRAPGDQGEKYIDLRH
Experimental: as §1, §2

Measured: binding result

B1: mouse anti-human MCAM monoclonal antibody clone 1749.1.3 (antibody, V domains shown)
VH: DVKLVESGGDLVKPGGSLKLSCAASGFTFSSYIMSWVRQTPEKRLEWVATISSGGSSTYYPDSVKGRFTISRDNAKNTLYLQMSSLKSEDTAMYYCTRDDDYDVKVFAYWGQGTLVTVSA
VL: DIVMSQSPSSLAVSAGEKVTMNCKSSRSLLNSRIRKNYLAWYQQKPGQSPKLLIYWASTRESGVPDRFTGSGSGTDFTLTISSVQAEDLAVYYCKQSYNLLTFGAGTKLELK
notes: Mouse hybridoma monoclonal antibody; also called m1749
no binding (tested: <30% WT): all assays above
